Results reported in patent US20210024620A1.

Experiments:
[1] = molecular target: Human CD16a (FcγRIIIa residues 17-208 with C-terminal HPC4 tag and valine at position 158) (human) (UniProt P08637); test: Biacore SPR, HPC4-tagged FcγRIIIa-V158 captured by anti-HPC4, pH 7.4
[2] = molecular target: biotinylated human FcRn (human) (UniProt P55899); test: Biacore, biotin-captured hFcRn, pH 6.0
[3] = molecular target: Human CD16a (FcγRIIIa V158) with C-terminal HPC4 tag (human) (UniProt P08637); test: Biacore SPR, FcγRIIIa-V158 captured, pH 7.4
Chain of Human CD16a (FcγRIIIa V158) with C-terminal HPC4 tag (human) (P08637 17-208 F176V): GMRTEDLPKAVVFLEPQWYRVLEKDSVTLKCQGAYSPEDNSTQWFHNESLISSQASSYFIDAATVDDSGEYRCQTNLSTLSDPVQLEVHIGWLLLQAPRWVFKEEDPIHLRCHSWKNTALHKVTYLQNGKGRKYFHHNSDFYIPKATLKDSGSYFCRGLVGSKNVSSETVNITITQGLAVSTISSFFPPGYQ

[4] = molecular target: FcRn immobilised on the FcRn affinity column (biotinylated cynoFcRn in one experiment, biotinylated hFcRn in another); test: FcRn affinity chromatography, linear pH gradient; species of the immobilised FcRn not given
[5] = molecular target: Human CD16a (FcγRIIIa V158) with C-terminal HPC4 tag (human) (UniProt P08637); test: Biacore, FcγRIIIa V158 captured, steady-state fit, apparent KD
[6] = molecular target: biotinylated human FcRn (p51 subunit residues 24-297 with C-terminal Avi-tag; beta2-microglobulin residues 21-119) (human) (UniProt P55899); test: Biacore; affinity at pH 6.0 (M^-1) over steady state RU at pH 7.4
Chain of biotinylated human FcRn (p51 subunit residues 24-297 with C-terminal Avi-tag; beta2-microglobulin residues 21-119) (human) (P55899 24-297 limits assumed, chain 1 of 2): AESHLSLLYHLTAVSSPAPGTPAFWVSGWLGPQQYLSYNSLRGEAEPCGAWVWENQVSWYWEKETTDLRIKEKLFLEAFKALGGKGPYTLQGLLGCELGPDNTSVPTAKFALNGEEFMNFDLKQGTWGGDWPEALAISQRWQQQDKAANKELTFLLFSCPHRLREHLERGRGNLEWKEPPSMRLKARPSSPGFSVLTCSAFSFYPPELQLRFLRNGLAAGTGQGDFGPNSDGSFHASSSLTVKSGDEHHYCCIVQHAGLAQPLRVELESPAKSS
Chain of biotinylated human FcRn (p51 subunit residues 24-297 with C-terminal Avi-tag; beta2-microglobulin residues 21-119) (human) (P61769 21-119 limits assumed, chain 2 of 2, further chain): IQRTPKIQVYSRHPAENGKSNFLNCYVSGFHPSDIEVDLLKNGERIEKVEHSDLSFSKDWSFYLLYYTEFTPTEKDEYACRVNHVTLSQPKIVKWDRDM

[7] = molecular target: biotinylated human FcRn (p51 subunit residues 24-297 with C-terminal Avi-tag; beta2-microglobulin residues 21-119) (human) (UniProt P55899); test: Biacore; inverse ratio (RU at pH 7.4 over affinity at pH 6.0)
[8] = molecular target: biotinylated human FcRn (p51 subunit residues 24-297 with C-terminal Avi-tag; beta2-microglobulin residues 21-119) (human) (UniProt P55899); test: Biacore SPR, pH 7.4, steady state
[9] = molecular target: biotinylated human FcRn (p51 subunit residues 24-297 with C-terminal Avi-tag; beta2-microglobulin residues 21-119) (human) (UniProt P55899); test: Biacore SPR, pH 6.0
rat FcRn (rat) [10] = molecular target: rat FcRn (rat) (UniProt P13599); test: Biacore SPR, pH 6.0
Chain of rat FcRn (rat) (P13599 23-298 limits assumed, chain 1 of 2): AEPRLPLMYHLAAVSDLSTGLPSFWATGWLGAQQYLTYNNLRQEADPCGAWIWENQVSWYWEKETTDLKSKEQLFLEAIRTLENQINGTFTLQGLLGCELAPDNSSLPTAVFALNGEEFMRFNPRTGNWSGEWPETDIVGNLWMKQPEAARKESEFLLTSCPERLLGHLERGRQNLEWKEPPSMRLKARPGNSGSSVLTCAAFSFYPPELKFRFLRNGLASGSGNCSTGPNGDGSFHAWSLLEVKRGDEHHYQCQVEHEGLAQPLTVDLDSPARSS
Chain of rat FcRn (rat) (P07151 21-119 limits assumed, chain 2 of 2, further chain): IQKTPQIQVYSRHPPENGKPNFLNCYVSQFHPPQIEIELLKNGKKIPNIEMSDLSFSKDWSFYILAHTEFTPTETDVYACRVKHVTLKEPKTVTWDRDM

[11] = molecular target: biotinylated human FcRn (human) (UniProt P55899); test: Biacore SPR, pH 6.0
rat FcRn (rat) [12] = molecular target: rat FcRn (rat) (UniProt P13599); test: Biacore SPR, pH 6.0; remark: listed apart in the source
[13] = molecular target: biotinylated human FcRn (human) (UniProt P55899); test: Biacore SPR, pH 6.0; remark: listed apart in the source
rat FcRn (rat) [14] = molecular target: rat FcRn (rat) (UniProt P13599); test: Biacore, pH 7.4, steady state response
[15] = molecular target: biotinylated human FcRn (human) (UniProt P55899); test: Biacore, pH 7.4, steady state response
rat FcRn (rat) [16] = molecular target: rat FcRn (rat) (UniProt P13599); test: Biacore, pH 6.0
[17] = molecular target: biotinylated human FcRn (human) (UniProt P55899); test: Biacore, pH 6.0
rat FcRn (rat) [18] = molecular target: rat FcRn (rat) (UniProt P13599); test: Biacore, pH 6.0, apparent KD
[19] = molecular target: biotinylated human FcRn (human) (UniProt P55899); test: Biacore, pH 6.0, apparent KD
rat FcRn (rat) [20] = molecular target: rat FcRn (rat) (UniProt P13599); test: Biacore SPR, pH 7.4
[21] = molecular target: biotinylated human FcRn (human) (UniProt P55899); test: Biacore SPR, pH 7.4
[22] = molecular target: biotinylated human FcRn (human) (UniProt P55899); test: Biacore, biotin-captured hFcRn, pH 8.0, 1000 nM antibody
[23] = molecular target: biotinylated human FcRn (human) (UniProt P55899); test: Biacore, biotin-captured hFcRn, pH 8.0
[24] = molecular target: biotinylated cynomolgus FcRn (cynomolgus) (UniProt Q8SPV9); test: Biacore, biotin-captured cFcRn, pH 6.0
[25] = molecular target: biotinylated human FcRn (human) (UniProt P55899); test: Biacore, biotin-captured hFcRn, pH 7.4
[26] = molecular target: biotinylated cynomolgus FcRn (cynomolgus) (UniProt Q8SPV9); test: Biacore, biotin-captured cFcRn, pH 8.0
[27] = molecular target: biotinylated human FcRn (human) (UniProt P55899); test: Biacore, biotin-captured hFcRn, pH 7.4, 1000 nM antibody
[28] = molecular target: biotinylated cynomolgus FcRn (cynomolgus) (UniProt Q8SPV9); test: Biacore, biotin-captured cFcRn, pH 7.4, 1000 nM antibody
[29] = molecular target: biotinylated cynomolgus FcRn (cynomolgus) (UniProt Q8SPV9); test: Biacore, biotin-captured cFcRn, pH 7.4
[30] = molecular target: biotinylated cynomolgus FcRn (cynomolgus) (UniProt Q8SPV9); test: Biacore, biotin-captured cFcRn, pH 9.0, 1000 nM antibody
[31] = molecular target: biotinylated cynomolgus FcRn (cynomolgus) (UniProt Q8SPV9); test: Biacore, biotin-captured cFcRn, pH 8.0, 1000 nM antibody
[32] = molecular target: biotinylated human FcRn (human) (UniProt P55899); test: Biacore, biotin-captured hFcRn, pH 9.0, 1000 nM antibody

Chain of biotinylated human FcRn (human) (P55899 24-297 limits assumed, chain 1 of 2): as the sequence (P55899 24-297 limits assumed, chain 1 of 2) above
Chain of biotinylated human FcRn (human) (P61769 21-119 limits assumed, chain 2 of 2, further chain): as the sequence (P61769 21-119 limits assumed, chain 2 of 2, further chain) above
Chain of Human CD16a (FcγRIIIa residues 17-208 with C-terminal HPC4 tag and valine at position 158) (human) (P08637 17-208 F176V): as the sequence (P08637 17-208 F176V) above

Substance: mAb1 YEQF (M252Y/T256E/T307Q/N434F) (antibody)
- FcγRIIIa Binding Steady State RU [1]: 226 RU
- Kd [2]: 15 nM
- koff [2]: 0.0121 s⁻¹
- kon [2]: 790000 M⁻¹ s⁻¹

Substance: mAb1 MDWN (T256D/T307W) (antibody)
- FcγRIIIa V158 affinity fold change relative to WT [3]: 0.89 fold
- FcRn affinity column elution pH [4]: 7.92 pH
- Kd [5]: 512 nM
- Ratio (pH 6.0/pH 7.4) [6]: 485000
- Ratio (pH 7.4/pH 6.0) [7]: 2.06e-06
- Steady State Binding, pH 7.4 (RU) [8]: 12.2 RU
- Ka [9]: 5.92e+06 M⁻¹
- Kd (rat FcRn (rat) [10]): 8.24 nM
- koff (rat FcRn (rat) [10]): 0.00129 s⁻¹
- kon (rat FcRn (rat) [10]): 157000 M⁻¹ s⁻¹
- Kd [11]: 169 nM
- koff [11]: 0.0892 s⁻¹
- kon [11]: 529000 M⁻¹ s⁻¹
- Kd (rat FcRn (rat) [12]): 8.2 nM
- koff [13]: 0.089 s⁻¹
- kon [13]: 530000 M⁻¹ s⁻¹
- Steady State RU (rat FcRn (rat) [14]): 42.1 RU
- Steady State RU [15]: 12.2 RU
- koff (rat FcRn (rat) [16]): 0.0013 s⁻¹
- kon (rat FcRn (rat) [16]): 16000 M⁻¹ s⁻¹
- koff [17]: 0.089 s⁻¹
- kon [17]: 530000 M⁻¹ s⁻¹
- Kd (rat FcRn (rat) [18]): 8.2 nM
- Kd [19]: 169 nM
- Steady State RU (rat FcRn (rat) [20]): 42.1 RU
- Steady State RU [21]: 12.2 RU

Substance: mAb1 YDWF (M252Y/T256D/T307W/N434F) (antibody)
- FcγRIIIa Binding Steady State RU [1]: 128 RU
- Steady State RU [22]: 235 RU
- Kd [23]: 1300 nM
- Kd [24]: 8.6 nM
- Kd [25]: 194 nM
- Steady State Binding, pH 7.4 (RU) [8]: 71.8 RU
- Ka [9]: 1.66e+08 M⁻¹
- Kd [26]: 680 nM
- Steady State RU [27]: 124 RU
- Steady State RU [28]: 173 RU
- Kd [29]: 115 nM
- Steady State RU [30]: 4.6 RU
- Steady State RU [31]: 313 RU

Substance: mAb1 MDWY (T256D/T307W/N434Y) (antibody)
- Ratio (pH 6.0/pH 7.4) [6]: 1.42e+06
- FcγRIIIa Binding Steady State RU [1]: 211 RU
- Steady State RU [22]: 145 RU
- Ratio (pH 6.0/pH 7.4) [7]: 7.02e-07
- Steady State RU [32]: 0.7 RU
- Kd [23]: 2700 nM
- koff [23]: 0.54 s⁻¹
- kon [23]: 260000 M⁻¹ s⁻¹
- Kd [24]: 15 nM
- koff [24]: 0.0103 s⁻¹
- kon [24]: 700000 M⁻¹ s⁻¹
- Kd [2]: 18 nM
- koff [2]: 0.0123 s⁻¹
- kon [2]: 700000 M⁻¹ s⁻¹
- Kd [25]: 101 nM
- koff [25]: 0.05 s⁻¹
- kon [25]: 500000 M⁻¹ s⁻¹
- Steady State Binding, pH 7.4 (RU) [8]: 59 RU
- Ka [9]: 8.4e+07 M⁻¹
- Kd [26]: 1200 nM
- koff [26]: 0.69 s⁻¹
- kon [26]: 620000 M⁻¹ s⁻¹
- Steady State RU [27]: 125 RU
- Steady State RU [28]: 165 RU
- Kd [29]: 85 nM
- koff [29]: 0.029 s⁻¹
- kon [29]: 350000 M⁻¹ s⁻¹
- Steady State RU [30]: 1.3 RU
- Steady State RU [31]: 197 RU
